Test results as given in publication PMC11686999.

Molecular target: Pyruvate kinase M2 (PKM2) (human (endogenous in HCT116 and RKO)) (UniProt P14618)
Assay: cross-linking

Sequence of Pyruvate kinase M2 (PKM2), P14618 1-531 (natural protein; other documents disagree on this pair) (P14618 whole entry): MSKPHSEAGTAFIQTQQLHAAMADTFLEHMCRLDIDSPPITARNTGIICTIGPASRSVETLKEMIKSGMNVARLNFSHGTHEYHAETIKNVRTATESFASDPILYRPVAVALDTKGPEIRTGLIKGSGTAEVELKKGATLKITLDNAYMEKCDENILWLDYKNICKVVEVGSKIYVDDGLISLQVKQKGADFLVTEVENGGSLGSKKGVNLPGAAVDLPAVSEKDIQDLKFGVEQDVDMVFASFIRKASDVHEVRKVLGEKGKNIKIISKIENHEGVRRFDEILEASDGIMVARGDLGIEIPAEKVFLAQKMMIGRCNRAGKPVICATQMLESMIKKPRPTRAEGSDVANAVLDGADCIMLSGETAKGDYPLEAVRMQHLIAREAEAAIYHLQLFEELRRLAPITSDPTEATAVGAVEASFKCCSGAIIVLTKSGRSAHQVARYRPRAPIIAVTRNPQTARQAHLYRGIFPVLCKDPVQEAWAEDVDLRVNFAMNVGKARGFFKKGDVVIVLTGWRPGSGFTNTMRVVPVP

stoichiometry N: 2
Substance: Pyruvate kinase M2 (PKM2), P14618 1-531 (natural protein; other documents disagree on this pair)
